From US7744887B2, “Human antibodies interacting with HIV gp41” (priority 2004, dated 2010) come the findings set out here.

The Kd is the equilibrium constant for the complex coming apart. In general, IC50 refers to the concentration that inhibits the measured activity by half. Higher therefore signals weaker potency in that assay.

Assay [1] concerns CXCR4-tropic HIV-1 strain HXB2. The assay is classed as cell-based. The note with it: for effect on HIV-HXB2 replication: single cycle infectivity assay, FIG. 9.
The subject of assay [2] is HIV-1 (envelope from strain HXB2). Put plainly: HIV Reporter Particle (HIVRP) assay. The assay is classed as cell-based. The note with it: envelope from strain HXB2, purified scFvs.
The next assay deals with CCR5-tropic strain BaL. Type of assay: cell-based, HIV-1.
The test system of assay [3] is HIV particles pseudotyped with the surface protein of the Vesicular Stomatitis Virus (VSV-G). Type of assay: cell-based.
For the next assay, the system named is IQN17. Put plainly: ALPHASCREEN D5 IgG/IQN17 binding assay. Set-up: species or system HIV-1.
The next assay has as its target IQN17-2Pro. Put plainly: Surface plasmon resonance (Biacore), IQN17-2Pro. The assay is classed as binding, HIV-1. The note with it: peptide IQN17-2Pro. The source says:
(§1) Affinity of D5 IgG for the hydrophobic pocket of HR1—The affinity of D5 IgG for various peptides was next determined by surface plasmon resonance (Biacore).
Background: SPR reads the build-up and loss of mass on a sensor chip optically.

In another assay the target is IZN17. Description: Surface plasmon resonance (Biacore), IZN17. The assay is classed as binding, HIV-1. Conditions: peptide IZN17.
Description: as §1

Assay [4] deals with interaction of biotinylated IZN36 with C34-HA (Human immunodeficiency virus type 1 group M subtype B, UniProt P04578). Conditions: ALPHASCREEN, FIG. 15. In general terms: Bead proximity is the source of the signal in Alpha formats.
The target in another assay is IZN17-G572D. Put plainly: Surface plasmon resonance (Biacore), IZN17-G572D. Type of assay: binding, HIV-1. Conditions: peptide IZN17-G572D.
Description: as §1

Another assay deals with IZN36 (Human immunodeficiency virus type 1 group M subtype B, UniProt P04578). Conditions: ALPHASCREEN, FIG. 10.
A further assay has as its target IZN17-Q567R. Put plainly: Surface plasmon resonance (Biacore), IZN17-Q567R. The assay is classed as binding, HIV-1. Conditions: peptide IZN17-Q567R.
Description: as §1

For assay [5], the system named is dual tropic strain (CCR5 and CXCR4) HIV 89.6. The assay is classed as cell-based, HIV-1.
For a further assay, the target named is IZN17-L565M. Put plainly: Surface plasmon resonance (Biacore), IZN17-L565M. Type of assay: binding, HIV-1. The note with it: peptide IZN17-L565M.
Description: as §1

Assay [6] concerns the target T1, 5-Helix (Human immunodeficiency virus type 1 group M subtype B, UniProt P04578, C598G/DEL583-596/DEL601-623/N624G). The note with it: ALPHASCREEN, FIG. 10.
Assay [7] concerns the target T1, 5-Helix. The note with it: Biacore, peptide 5-Helix.
Description: as §1

A further assay has as its system HIV strain MN-1. The assay is classed as cell-based, HIV-1. The note with it: MN-1, single cycle infectivity assay.

B1: D5 scFv: human scFv from phage display, SEQ ID NO:2, VH and VL joined by (G4S)3 linker; binds gp41 HR1 hydrophobic pocket (protein)
scFv: QVQLVQSGAEVRKPGASVKVSCKASGDTFSSYAISWVRQAPGQGLEWMGGIIPIFGTANYAQKFQGRVTITADESTSTAYMELSSLRSEDTAIYYCARDNPTLLGSDYWGKGTLVTVSSGGGGSGGGGSGGGGSDIQMTQSPSTLSASIGDRVTITCRASEGIYHWLAWYQQKPGKAPKLLIYKASSLASGAPSRFSGSGSGTDFTLTISSLQPDDFATYYCQQYSNYPLTFGGGTKLEIK
modifications: Homo sapien
As for B1, in assay [1], the “effect on HIV-HXB2 replication” value is on record as “inhibited HIV—HXB2 replication”. Besides, the “ability to prevent HIV-1 entry” value in assay [2] is listed as “capable of inhibiting HIV-1 entry”. The “effect on HIV-BaL replication” value with CCR5-tropic strain BaL (single cycle infectivity assay) is “inhibited replication of HIV-BaL”. For the same molecule, the “prevention of infection by VSV-G pseudotyped particles” value in assay [3] was “Neither D5 nor X5 scFvs prevented infection”.

B2: D5 IgG: full length human IgG4/kappa carrying D5 VH (SEQ ID NO:4) and VL (SEQ ID NO:6) (antibody, V domains shown)
VH: QVQLVQSGAEVRKPGASVKVSCKASGDTFSSYAISWVRQAPGQGLEWMGGIIPIFGTANYAQKFQGRVTITADESTSTAYMELSSLRSEDTAIYYCARDNPTLLGSDYWGKGTLVTVSS
VL: DIQMTQSPSTLSASIGDRVTITCRASEGIYHWLAWYQQKPGKAPKLLIYKASSLASGAPSRFSGSGSGTDFTLTISSLQPDDFATYYCQQYSNYPLTFGGGTKLEIK
modifications: human IgG4/kappa constant regions; Homo sapien
As to B2, in the assay with IQN17, the “interaction with biotinylated IQN17” value is “evident interaction”. Moreover, in the assay with CCR5-tropic strain BaL (BaL versus HXB2), the “fold more sensitive than HXB2” value was “approximately 3 fold”. The Kd on IQN17-2Pro stood at 240 nM; at IZN17, 0.1 nM; on IZN17-G572D, 550 nM; on IZN17-Q567R, 1.5 nM; on IZN17-L565M, 0.3 nM. Moreover, the Off in the assay with IQN17-2Pro is on record as 2.2e−3 1/S; in the assay with IZN17, 5.9e−4 1/S; in the assay on IZN17-G572D it was 3.0e−3 1/S; with IZN17-Q567R, 1.2e−3 1/S; in the assay on IZN17-L565M, 8.9e−4 1/S; with 5-Helix [7] it was 1.0e−4 1/S. For the same molecule, the On was 9000 M⁻¹ s⁻¹ in the assay on IQN17-2Pro; 6.1e+06 M⁻¹ s⁻¹ in the assay on IZN17; 5500 M⁻¹ s⁻¹ in the assay with IZN17-G572D; 800000 M⁻¹ s⁻¹ in the assay with IZN17-Q567R; 3e+06 M⁻¹ s⁻¹ in the assay on IZN17-L565M; 390000 M⁻¹ s⁻¹ with 5-Helix [7]. For the same molecule, the IC50 entry in [3] is “Not active”. The “effect on the interaction of C34-HA with IZN36” value in assay [4] is “prevented the interaction of C34-HA with IZN36”. Moreover, the “interaction with biotinylated IZN36” value with IZN36 is reported as “clear interaction”. The “fold less susceptible to neutralization than HXB2” value in assay [5] (89.6 versus HXB2) is listed as “approximately 6 fold”. Besides, the “interaction with biotinylated 5-Helix” value in the assay with 5-Helix [6] is given as “clear interaction”.

B3: B11 IgG: full length human IgG1/kappa carrying B11 VH (SEQ ID NO:10) and VL (SEQ ID NO:12) (antibody, V domains shown)
VH: QVQLVQSGAEVKKPGSSVKVSCKASGGTFSSYAISWVRQAPGQGLEWMGGIIPLFDTSNYAQNFQGRITITADKSTSTAYMELSSLRFEDTAIYYCARDNPLLLAMDVWGKGTTVTVSS
VL: DIQMTQSPSTLSASIGDRVTITCRASEGIYHWLAWYQQKPGKAPKLLIYKASSLASGAPSRFSGSGSGTDFTLTISSLQPDDFATYYCQQYSNYPLTFGGGTKLEIK
modifications: human IgG1/kappa constant regions; Homo sapien
Take B3: the IC50 in assay [1] (HIV-HXB2, single cycle infectivity assay) was found to be 290 nM; with CCR5-tropic strain BaL (HIV-BaL, single cycle infectivity assay) it was 73 nM; with HIV strain MN-1 it was 244 nM; in [5] (HIV 89.6, single cycle infectivity assay), 943 nM.

B4: B11 scFv: human scFv from phage display, SEQ ID NO:8, VH and VL joined by (G4S)3 linker; binds gp41 HR1 (protein)
scFv: QVQLVQSGAEVKKPGSSVKVSCKASGGTFSSYAISWVRQAPGQGLEWMGGIIPLFDTSNYAQNFQGRITITADKSTSTAYMELSSLRFEDTAIYYCARDNPLLLAMDVWGKGTTVTVSSGGGGSGGGGSGGGGSDIQMTQSPSTLSASIGDRVTITCRASEGIYHWLAWYQQKPGKAPKLLIYKASSLASGAPSRFSGSGSGTDFTLTISSLQPDDFATYYCQQYSNYPLTFGGGTKLEIK
modifications: Homo sapien
On to B4, for which the “effect on HIV-HXB2 replication” value in [1] is “displayed anti-viral properties against the HIV—HXB2 strain”. Moreover, the “ability to prevent HIV-1 entry” value in assay [2] was “capable of inhibiting HIV-1 entry”.
